# Source: publication PMC10107573
# Molecular target: recombinant biotinylated SARS-CoV-2 spike RBD, wild type (SARS-CoV-2) (UniProt P0DTC2)
# Assay: BLI
# Conditions: bispecific antibody
row,Substance,Kd [nM]
1,"bispecific antibody BI-1C2C (IgG-ScFv format, from mAbs 13-1C and 6-2C) (from UniProt P01857)",2.16
2,"bispecific antibody BI-2C1C (IgG-ScFv format, from mAbs 6-2C and 13-1C) (from UniProt P01857)",1.04
3,bispecific antibody BI-2C5B (IgG-ScFv format: 6-2C IgG with 10-5B ScFv) (from UniProt P01857),4.71
4,bispecific antibody BI-5B2C (IgG-ScFv format: 10-5B IgG with 6-2C ScFv) (from UniProt P01857),4.89
